Measurements: the supplement of paper PMC9112550, “Optimization of the antimicrobial peptide Bac7 by deep mutational scanning” (BMC Biology, 2022)

Tested on: Escherichia coli TOP10
Experiment: shrunken log2 fold change of peptide-encoding DNA abundance (4.5 h post-induction vs induction); higher = less antimicrobial activity (less host growth inhibition)
Settings: time post-induction: 4.5 h; library: site-saturation at positions 5, 18, 19, 20
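Further: peptides expressed intracellularly from a pBAD plasmid library in pooled LB shake-flask culture, induced with 0.3% L-arabinose, DNA abundance read by NGS, three biological replicates, DESeq2 with apeglm shrinkage.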

| Sequence | shrunken log2 fold change |
| --- | --- |
| RRIRSRPPRLPRPRPRPVKTPRP | -0.0806 |
| RRIRPRPPRLPRPRPRPDENPRP | -0.0444 |
| RRIRARPPRLPRPRPRPGIFPRP | 0.468 |
| RRIRHRPPRLPRPRPRPMYIPRP | -0.0294 |
| RRIRVRPPRLPRPRPRPVLIPRP | -0.186 |
| RRIRQRPPRLPRPRPRPEFTPRP | -0.0117 |
| RRIRPRPPRLPRPRPRPAIYPRP | -0.017 |
| RRIRNRPPRLPRPRPRPRFSPRP | 0.0393 |
| RRIRGRPPRLPRPRPRPLGKPRP | 0.362 |
| RRIRLRPPRLPRPRPRPYLVPRP | -1.06 |
| RRIRERPPRLPRPRPRPNDNPRP | -0.882 |
| RRIRKRPPRLPRPRPRPHAEPRP | 0.126 |
| RRIRTRPPRLPRPRPRPVRNPRP | 0.509 |
| RRIRCRPPRLPRPRPRPSICPRP | -0.194 |
| RRIRNRPPRLPRPRPRPSQAPRP | 0.0297 |
| RRIRWRPPRLPRPRPRPDTWPRP | 0.0829 |
| RRIRLRPPRLPRPRPRPLVKPRP | -0.00589 |
| RRIRYRPPRLPRPRPRPANDPRP | -0.0297 |
| RRIRARPPRLPRPRPRPCFRPRP | -0.0247 |
| RRIRRRPPRLPRPRPRPWPGPRP | 0.287 |
| RRIRQRPPRLPRPRPRPGHGPRP | -0.124 |
| RRIRQRPPRLPRPRPRPQQPPRP | 0.00789 |
| RRIRLRPPRLPRPRPRPHQDPRP | -0.308 |
| RRIRLRPPRLPRPRPRPLQPPRP | 0.206 |
| RRIRVRPPRLPRPRPRPAEGPRP | -0.0119 |

| Sequence | shrunken log2 fold change |
| --- | --- |
| RRIRVRPPRLPRPRPRPGWRPRP | 0.49 |
| RRIRQRPPRLPRPRPRPYEVPRP | -0.31 |
| RRIRFRPPRLPRPRPRPVVHPRP | -0.106 |
| RRIRKRPPRLPRPRPRPWAHPRP | 4.43 |
| RRIRCRPPRLPRPRPRPGKKPRP | -0.0838 |
| RRIRVRPPRLPRPRPRPWTGPRP | -0.0167 |
| RRIRPRPPRLPRPRPRPVQAPRP | -0.013 |
| RRIRYRPPRLPRPRPRPVFNPRP | -1.32 |
| RRIRKRPPRLPRPRPRPIAYPRP | -0.0799 |
| RRIRNRPPRLPRPRPRPRPMPRP | 0.522 |
| RRIRHRPPRLPRPRPRPFVRPRP | -0.073 |
| RRIRFRPPRLPRPRPRPWFYPRP | -0.587 |
| RRIRRRPPRLPRPRPRPFYDPRP | -0.193 |
| RRIRARPPRLPRPRPRPANEPRP | 0.173 |
| RRIRDRPPRLPRPRPRPIKTPRP | 0.058 |
| RRIRYRPPRLPRPRPRPGHMPRP | -0.195 |
| RRIRKRPPRLPRPRPRPIQMPRP | -0.107 |
| RRIRVRPPRLPRPRPRPGDGPRP | 0.532 |
| RRIRERPPRLPRPRPRPPGSPRP | -0.0206 |
| RRIRMRPPRLPRPRPRPKEYPRP | 0.189 |
| RRIRHRPPRLPRPRPRPLVRPRP | -0.103 |
| RRIRCRPPRLPRPRPRPPAPPRP | 1.11 |
| RRIRVRPPRLPRPRPRPIMCPRP | 0.0128 |
| RRIRIRPPRLPRPRPRPLGEPRP | -0.277 |
| RRIRGRPPRLPRPRPRPANEPRP | -0.0603 |

| Sequence | shrunken log2 fold change |
| --- | --- |
| RRIRWRPPRLPRPRPRPELKPRP | 0.276 |
| RRIRMRPPRLPRPRPRPQGTPRP | -0.000856 |
| RRIRRRPPRLPRPRPRPCKRPRP | 0.0349 |
| RRIRARPPRLPRPRPRPIFKPRP | -0.0373 |
| RRIRWRPPRLPRPRPRPWRHPRP | -0.141 |
| RRIRFRPPRLPRPRPRPRYIPRP | -0.392 |
| RRIRIRPPRLPRPRPRPSGRPRP | -0.427 |
| RRIRIRPPRLPRPRPRPYAYPRP | -0.0284 |
| RRIRFRPPRLPRPRPRPYIEPRP | -0.504 |
| RRIRNRPPRLPRPRPRPPASPRP | 0.486 |
| RRIRYRPPRLPRPRPRPLSDPRP | -0.108 |
| RRIRQRPPRLPRPRPRPFTWPRP | -0.398 |
| RRIRCRPPRLPRPRPRPAFAPRP | 0.134 |
| RRIRGRPPRLPRPRPRPQFIPRP | 0.0876 |
| RRIRVRPPRLPRPRPRPYLTPRP | -0.575 |
| RRIRYRPPRLPRPRPRPGSMPRP | -0.182 |
| RRIRWRPPRLPRPRPRPEMSPRP | -0.0114 |
| RRIRERPPRLPRPRPRPPHYPRP | -0.159 |
| RRIRGRPPRLPRPRPRPTHEPRP | 1.34 |
| RRIRIRPPRLPRPRPRPQQMPRP | -0.0189 |
| RRIRSRPPRLPRPRPRPNPVPRP | -0.0484 |
| RRIRMRPPRLPRPRPRPLVRPRP | 0.51 |
| RRIRLRPPRLPRPRPRPHKPPRP | 0.119 |
| RRIRWRPPRLPRPRPRPWVSPRP | -0.0613 |
| RRIRYRPPRLPRPRPRPRMVPRP | -0.475 |

| Sequence | shrunken log2 fold change |
| --- | --- |
| RRIRWRPPRLPRPRPRPYKIPRP | -0.286 |
| RRIRTRPPRLPRPRPRPVCCPRP | -0.254 |
| RRIRVRPPRLPRPRPRPDRMPRP | -0.268 |
| RRIRIRPPRLPRPRPRPSCTPRP | -0.407 |
| RRIRMRPPRLPRPRPRPMEVPRP | 0.0214 |
| RRIRGRPPRLPRPRPRPDRQPRP | -0.11 |
| RRIRIRPPRLPRPRPRPNNKPRP | -0.85 |
| RRIRMRPPRLPRPRPRPPRSPRP | 1.6 |
| RRIRSRPPRLPRPRPRPMHSPRP | -0.055 |
| RRIRLRPPRLPRPRPRPVQHPRP | -0.0767 |
| RRIRKRPPRLPRPRPRPRHDPRP | 0.254 |
| RRIRGRPPRLPRPRPRPPVMPRP | 0.333 |
| RRIRGRPPRLPRPRPRPGTWPRP | 0.255 |
| RRIRLRPPRLPRPRPRPQSIPRP | -0.0983 |
| RRIRCRPPRLPRPRPRPPFIPRP | -0.154 |
| RRIRYRPPRLPRPRPRPEDSPRP | -0.0108 |
| RRIRQRPPRLPRPRPRPCDEPRP | 0.0697 |
| RRIRHRPPRLPRPRPRPLINPRP | -0.201 |
| RRIRHRPPRLPRPRPRPMQWPRP | 0.00884 |
| RRIRARPPRLPRPRPRPLLEPRP | 0.834 |
| RRIRHRPPRLPRPRPRPAWQPRP | 0.0329 |
| RRIRPRPPRLPRPRPRPNRIPRP | -0.132 |
| RRIRSRPPRLPRPRPRPKGYPRP | 0.00982 |
| RRIRFRPPRLPRPRPRPNYLPRP | -0.381 |
| RRIRNRPPRLPRPRPRPFLFPRP | -0.301 |

| Sequence | shrunken log2 fold change |
| --- | --- |
| RRIRSRPPRLPRPRPRPTIRPRP | 0.0218 |
| RRIRLRPPRLPRPRPRPEDRPRP | -0.0181 |
| RRIRFRPPRLPRPRPRPRRLPRP | 0.462 |
| RRIRVRPPRLPRPRPRPCVGPRP | 0.00147 |
| RRIRFRPPRLPRPRPRPNKLPRP | -0.615 |
| RRIRFRPPRLPRPRPRPPKSPRP | 0.234 |
| RRIRDRPPRLPRPRPRPGLVPRP | 0.644 |
| RRIRERPPRLPRPRPRPICQPRP | 0.00158 |
| RRIRTRPPRLPRPRPRPWNDPRP | -0.271 |
| RRIRMRPPRLPRPRPRPMMDPRP | 0.0325 |
| RRIRNRPPRLPRPRPRPGFEPRP | 0.123 |
| RRIRERPPRLPRPRPRPWMFPRP | 0.0458 |
| RRIRLRPPRLPRPRPRPHEPPRP | -0.0213 |
| RRIRGRPPRLPRPRPRPWPNPRP | -0.0526 |
| RRIRPRPPRLPRPRPRPYKLPRP | -0.313 |
| RRIRYRPPRLPRPRPRPPYWPRP | -0.22 |
| RRIRMRPPRLPRPRPRPPPIPRP | 1.47 |
| RRIRYRPPRLPRPRPRPTPCPRP | -0.122 |
| RRIRDRPPRLPRPRPRPTRPPRP | 1.13 |
| RRIRMRPPRLPRPRPRPEHRPRP | 0.0887 |
| RRIRQRPPRLPRPRPRPKAAPRP | -0.0496 |
| RRIRARPPRLPRPRPRPYPHPRP | -0.0654 |
| RRIRARPPRLPRPRPRPSLSPRP | -0.224 |
| RRIRFRPPRLPRPRPRPSLHPRP | -0.558 |
| RRIRVRPPRLPRPRPRPEHAPRP | 0.0467 |

| Sequence | shrunken log2 fold change |
| --- | --- |
| RRIRGRPPRLPRPRPRPQLIPRP | 0.139 |
| RRIRYRPPRLPRPRPRPKHYPRP | -0.895 |
| RRIRWRPPRLPRPRPRPQSRPRP | 0.299 |
| RRIRSRPPRLPRPRPRPNTDPRP | -0.442 |
| RRIRRRPPRLPRPRPRPFHNPRP | 0.00548 |
| RRIRQRPPRLPRPRPRPNLEPRP | -0.136 |
| RRIRNRPPRLPRPRPRPETDPRP | -0.05 |
| RRIRQRPPRLPRPRPRPHAIPRP | -0.562 |
| RRIRTRPPRLPRPRPRPGFQPRP | -0.0547 |
| RRIRPRPPRLPRPRPRPGCAPRP | 1.55 |
| RRIRHRPPRLPRPRPRPFFDPRP | -0.642 |
| RRIRKRPPRLPRPRPRPLHAPRP | 0.449 |
| RRIRKRPPRLPRPRPRPPKHPRP | 0.723 |
| RRIRMRPPRLPRPRPRPLTSPRP | 0.0851 |
| RRIRPRPPRLPRPRPRPSMQPRP | -0.29 |
| RRIRQRPPRLPRPRPRPSIVPRP | -0.323 |
| RRIRCRPPRLPRPRPRPCGCPRP | -0.0301 |
| RRIRWRPPRLPRPRPRPWVFPRP | 0.262 |
| RRIRSRPPRLPRPRPRPAYDPRP | -0.477 |
| RRIRRRPPRLPRPRPRPNTLPRP | -0.283 |
| RRIRQRPPRLPRPRPRPQLTPRP | -0.405 |
| RRIRRRPPRLPRPRPRPEIFPRP | 0.215 |
| RRIRKRPPRLPRPRPRPGKIPRP | 0.494 |
| RRIRKRPPRLPRPRPRPPKGPRP | 0.333 |
| RRIRCRPPRLPRPRPRPCCLPRP | -0.35 |
